Laboratory results: patent US20230331860A1 (Bristol-Myers Squibb, published 2023)

Legend:
[1] = molecular target: T1, murine CD40 (murine, UniProt P27512 24-193, limits assumed); test: single-cycle kinetic SPR, CD40 on the surface
T1 construct: also called murine CD40 receptors
T1 sequence (looked up): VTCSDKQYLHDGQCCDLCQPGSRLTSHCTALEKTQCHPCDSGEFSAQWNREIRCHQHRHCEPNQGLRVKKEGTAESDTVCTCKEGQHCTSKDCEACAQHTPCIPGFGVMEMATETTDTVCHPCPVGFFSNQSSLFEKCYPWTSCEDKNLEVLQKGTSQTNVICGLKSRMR

[2] = molecular target: T2, cynomolgus CD40 (cynomolgus monkey, UniProt G7PG38 21-193); test: binding to CD20-positive B cells in cynomolgus monkey whole blood, detected with secondary anti-human IgG1-PE; n=4 donors
T2 construct: also called monomeric cynomolgus CD40; monkey CD40 receptors

[3] = molecular target: T2, cynomolgus CD40; test: cell-based or functional assay
[4] = molecular target: T3, human CD40 (human, UniProt P25942 21-193); test: cell-based or functional assay
T3 sequence (P25942 21-193 limits assumed): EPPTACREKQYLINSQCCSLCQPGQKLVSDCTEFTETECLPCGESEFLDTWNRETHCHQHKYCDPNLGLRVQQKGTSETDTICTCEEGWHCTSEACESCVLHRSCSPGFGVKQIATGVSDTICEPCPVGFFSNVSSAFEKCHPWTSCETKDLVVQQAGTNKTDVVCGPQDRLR

[5] = molecular target: T4, hCD32b (human, UniProt P31994 43-217, limits assumed); test: FcγR binding, SPR (method per paragraph 74)
T4 construct: also called hCD32b/FcγRIIb
T4 sequence (looked up): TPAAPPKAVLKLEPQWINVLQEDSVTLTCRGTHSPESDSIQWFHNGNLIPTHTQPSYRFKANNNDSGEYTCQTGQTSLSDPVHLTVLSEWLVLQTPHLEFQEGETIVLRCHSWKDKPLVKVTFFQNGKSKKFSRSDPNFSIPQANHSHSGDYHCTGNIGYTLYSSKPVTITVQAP

[6] = molecular target: T5, hCD32a-R131 (human, UniProt P12318 36-218, limits assumed); test: FcγR binding, SPR (method per paragraph 74)
T5 construct: Position 131 is the customary allotype numbering; also called hCD32a/FcγRIIa, R131 variant
T5 sequence (looked up): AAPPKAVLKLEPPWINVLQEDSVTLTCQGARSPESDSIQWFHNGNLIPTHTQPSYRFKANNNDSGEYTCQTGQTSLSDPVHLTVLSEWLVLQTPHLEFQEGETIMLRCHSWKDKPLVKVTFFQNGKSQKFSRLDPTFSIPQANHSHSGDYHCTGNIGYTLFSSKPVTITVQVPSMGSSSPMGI

[7] = molecular target: T6, hCD64 (human, UniProt P12314 16-288, limits assumed); test: FcγR binding, SPR (method per paragraph 74)
T6 construct: also called human CD64
T6 sequence (P12314 16-288 limits assumed): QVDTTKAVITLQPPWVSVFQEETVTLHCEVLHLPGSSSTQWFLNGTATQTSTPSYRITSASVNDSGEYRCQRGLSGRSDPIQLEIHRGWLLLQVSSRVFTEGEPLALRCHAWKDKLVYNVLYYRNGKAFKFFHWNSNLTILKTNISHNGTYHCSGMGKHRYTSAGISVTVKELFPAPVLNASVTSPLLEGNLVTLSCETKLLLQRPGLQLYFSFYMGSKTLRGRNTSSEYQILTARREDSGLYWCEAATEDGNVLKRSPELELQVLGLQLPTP

[8] = molecular target: T7, cyCD32a (cynomolgus monkey, UniProt A0A140HDN0 30-216); test: FcγR binding, SPR (method per paragraph 74)
T7 construct: also called cynomolgus CD32a
T7 sequence: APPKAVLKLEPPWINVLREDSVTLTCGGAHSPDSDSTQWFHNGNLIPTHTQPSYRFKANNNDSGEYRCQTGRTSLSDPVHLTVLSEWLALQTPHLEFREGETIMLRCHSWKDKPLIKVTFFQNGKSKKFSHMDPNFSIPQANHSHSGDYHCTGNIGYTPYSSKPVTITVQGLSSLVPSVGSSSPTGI

[9] = molecular target: T8, hCD32a-H131 (human, UniProt P12318 36-218, limits assumed); test: FcγR binding, SPR (method per paragraph 74)
T8 construct: Position 131 is the customary allotype numbering; also called hCD32a/FcγRIIa, H131 variant
T8 sequence (looked up): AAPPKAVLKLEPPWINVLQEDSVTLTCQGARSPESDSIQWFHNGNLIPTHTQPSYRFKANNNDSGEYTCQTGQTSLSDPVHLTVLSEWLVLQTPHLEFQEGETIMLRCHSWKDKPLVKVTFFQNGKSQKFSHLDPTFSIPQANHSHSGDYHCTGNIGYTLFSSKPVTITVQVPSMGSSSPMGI

[10] = molecular target: T9, cyCD32b (cynomolgus monkey, UniProt A0A140HDP4 43-217); test: FcγR binding, SPR (method per paragraph 74)
T9 construct: also called cynomolgus CD32b
T9 sequence: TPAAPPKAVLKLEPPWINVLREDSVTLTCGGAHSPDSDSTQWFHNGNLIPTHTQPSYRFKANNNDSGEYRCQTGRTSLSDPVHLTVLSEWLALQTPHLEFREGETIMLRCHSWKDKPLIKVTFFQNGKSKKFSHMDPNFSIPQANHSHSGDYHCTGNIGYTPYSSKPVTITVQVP

[11] = molecular target: T10, hCD16a-F158 (human, UniProt P08637 17-208, limits assumed); test: FcγR binding, SPR (method per paragraph 74)
T10 construct: Position 158 is the customary allotype numbering; also called hCD16a/FcγRIIIa, F158 variant
T10 sequence (P08637 17-208 limits assumed): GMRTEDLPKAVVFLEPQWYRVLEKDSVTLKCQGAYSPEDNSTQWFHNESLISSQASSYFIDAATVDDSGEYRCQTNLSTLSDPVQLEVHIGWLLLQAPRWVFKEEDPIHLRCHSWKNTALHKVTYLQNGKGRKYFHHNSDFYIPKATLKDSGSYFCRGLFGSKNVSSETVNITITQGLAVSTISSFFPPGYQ

[12] = molecular target: T11, hCD16a-V158 (human, UniProt P08637 17-208, limits assumed); test: FcγR binding, SPR (method per paragraph 74)
T11 construct: Position 158 is the customary allotype numbering; also called hCD16a/FcγRIIIa, V158 variant
T11 sequence (P08637 17-208 F176V limits assumed): as the sequence (P08637 17-208 limits assumed) above, with F160V counted along it

[13] = molecular target: T12, cyCD16 (cynomolgus monkey, UniProt Q8SPW2 17-208, limits assumed); test: FcγR binding, SPR (method per paragraph 74)
T12 construct: also called cynomolgus CD16
T12 sequence (Q8SPW2 17-208 limits assumed): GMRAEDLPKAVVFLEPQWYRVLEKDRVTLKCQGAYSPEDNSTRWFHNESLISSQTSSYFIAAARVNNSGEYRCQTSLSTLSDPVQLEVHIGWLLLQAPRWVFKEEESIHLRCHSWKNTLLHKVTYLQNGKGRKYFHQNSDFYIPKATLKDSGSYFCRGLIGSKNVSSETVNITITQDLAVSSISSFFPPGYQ

[14] = molecular target: T3, human CD40; test: direct binding of AF488-labeled antibody to CD20-positive B cells in human whole blood; n=4 donors
[15] = molecular target: T2, cynomolgus CD40; test: direct binding of AF488-labeled antibody to CD20-positive B cells in cynomolgus monkey whole blood; n=2 donors
[16] = molecular target: T3, human CD40; test: direct binding of AF488-labeled antibody to CD20-positive B cells in human whole blood; n=4 donors (same result in mass units)
[17] = molecular target: T2, cynomolgus CD40; test: SPR, antibody captured on protein A chip, monomeric CD40 as analyte
[18] = molecular target: T3, human CD40; test: as above
[19] = molecular target: T3, human CD40; test: cell-based or functional assay; set-up: IC50, suppression of CHO CD40L-induced IL-6 production by monocyte-derived DCs; n=4 donors (mass units as printed) / IC50, suppression of CHO CD40L-induced TNFα production by monocyte-derived DCs; n=4 donors (mass units as printed): unit not given beside the values
[20] = molecular target: T2, cynomolgus CD40; test: binding to CD20-positive B cells in cynomolgus monkey whole blood, detected with secondary anti-human IgG1-PE; n=4 donors (same result in mass units)
[21] = molecular target: T2, cynomolgus CD40; test: direct binding of AF488-labeled antibody to CD20-positive B cells in cynomolgus monkey whole blood; n=2 donors (same result in mass units)
[22] = molecular target: T6, hCD64; test: FcγR binding, SPR (method per paragraph 74); remark: listed apart in the source

- binding result [1]: no binding
- EC50 [2]: 0.7 nM
- IC50, inhibition of CD86 upregulation on cynomolgus B cells in whole blood stimulated by soluble CD40L trimer; n=8 donors [3]: 0.25 nM
- IC50, inhibition of CD86 upregulation on cynomolgus B cells in whole blood stimulated by soluble CD40L trimer; n=8 donors (mass units) [3]: 0.0364 mg/L
- IC50, inhibition of cynomolgus splenic B-cell proliferation driven by CD40L-expressing CHO cells; n=6 donors [3]: 4.5 nM
- IC50, inhibition of cynomolgus splenic B-cell proliferation driven by CD40L-expressing CHO cells; n=6 donors (mass units) [3]: 0.65 mg/L
- IC50, inhibition of cynomolgus splenic B-cell proliferation driven by CD40L-trimer; n=6 donors [3]: 0.19 nM
- IC50, inhibition of cynomolgus splenic B-cell proliferation driven by CD40L-trimer; n=6 donors (mass units) [3]: 0.0278 mg/L
- IC50, inhibition of CD54 upregulation on human B cells in whole blood stimulated by soluble CD40L trimer; n=10 donors [4]: 0.24 nM
- IC50, inhibition of CD54 upregulation on human B cells in whole blood stimulated by soluble CD40L trimer; n=10 donors (mass units) [4]: 0.0346 mg/L
- IC50, inhibition of CD86 upregulation on human B cells in whole blood stimulated by soluble CD40L trimer; n=10 donors [4]: 0.24 nM
- IC50, inhibition of CD86 upregulation on human B cells in whole blood stimulated by soluble CD40L trimer; n=10 donors (mass units) [4]: 0.0342 mg/L
- IC50, inhibition of human tonsillar B-cell proliferation stimulated by soluble CD40L trimer; n=10 donors [4]: 0.04 nM
- IC50, inhibition of human tonsillar B-cell proliferation stimulated by soluble CD40L trimer; n=10 donors (mass units) [4]: 0.0056 mg/L
- IC50, inhibition of tonsillar B-cell proliferation stimulated by CD40L-expressing CHO cells; n=8 donors [4]: 0.28 nM
- IC50, inhibition of tonsillar B-cell proliferation stimulated by CD40L-expressing CHO cells; n=8 donors (mass units) [4]: 0.0399 mg/L
- binding result [5]: no binding
- binding result [6]: no binding
- Kd [7]: 17 nM
- binding result [8]: no binding
- binding result [9]: no binding
- binding result [10]: no binding
- binding result [11]: no binding
- binding result [12]: no binding
- binding result [13]: no binding
- EC50 [14]: 0.9 nM
- EC50 [15]: 1 nM
- EC50 [16]: 0.13 mg/L
- Kd [17]: 6.7 nM
- koff [17]: 0.0016 s⁻¹
- kon [17]: 240000 M⁻¹ s⁻¹
- Kd [18]: 5.3 nM
- koff [18]: 0.0012 s⁻¹
- kon [18]: 230000 M⁻¹ s⁻¹
- IC50, suppression of CHO CD40L-induced IL-6 production by monocyte-derived DCs; n=4 donors [19]: 0.08 nM
- IC50, suppression of CHO CD40L-induced IL-6 production by monocyte-derived DCs; n=4 donors (mass units as printed) [19]: 11.3
- IC50, suppression of CHO CD40L-induced TNFα production by monocyte-derived DCs; n=4 donors [19]: 0.1 nM
- IC50, suppression of CHO CD40L-induced TNFα production by monocyte-derived DCs; n=4 donors (mass units as printed) [19]: 13.3
- EC50 [20]: 0.106 mg/L
- EC50 [21]: 0.149 mg/L
- fold weaker binding than wild-type human IgG1 control [22]: 100 fold
B1: BMS-986325 (antibody, human IgG1, kappa)
heavy: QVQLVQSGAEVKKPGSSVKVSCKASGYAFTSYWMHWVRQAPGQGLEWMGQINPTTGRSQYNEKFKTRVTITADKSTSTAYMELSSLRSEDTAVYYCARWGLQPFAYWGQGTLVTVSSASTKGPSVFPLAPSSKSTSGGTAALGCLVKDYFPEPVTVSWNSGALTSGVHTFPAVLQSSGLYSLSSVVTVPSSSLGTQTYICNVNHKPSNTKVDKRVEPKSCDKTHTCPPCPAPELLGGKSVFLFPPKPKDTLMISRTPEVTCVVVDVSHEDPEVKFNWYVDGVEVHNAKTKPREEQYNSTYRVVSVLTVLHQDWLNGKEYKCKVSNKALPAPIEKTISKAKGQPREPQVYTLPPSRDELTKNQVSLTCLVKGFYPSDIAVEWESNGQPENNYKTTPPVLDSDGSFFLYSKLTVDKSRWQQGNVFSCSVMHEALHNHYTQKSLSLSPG
light: DIQMTQSPSFLSASVGDRVTITCKASQDVSTAVAWYQQKPGKAPKLLIYSASYRYTGVPSRFSGSGSGTDFTLTISSLQPEDFATYYCQQHYSTPWTFGGGTKVEIKRTVAAPSVFIFPPSDEQLKSGTASVVCLLNNFYPREAKVQWKVDNALQSGNSQESVTEQDSKDSTYSLSSTLTLSKADYEKHKVYACEVTHQGLSSPVTKSFNRGEC
notes: also called Y12XX-hz28-P238K; Y12XX-hz28 (Vh-hz14)
